Where a chain is given by its changes, count along the chain named. Square brackets hold non-standard residues; d marks the D form. * marks the point of attachment. Biotin = O=C1N[C@H]2[C@H](CS[C@H]2CCCCC(=O)*)N1; pS = N[C@@H](COP(=O)(O)O)C(=O)O
Legend:
[1] = target: T1, Tau 186-205 peptide (17G2.A1 peptide) (human, N-terminal biotin); assay: direct ELISA on biotinylated peptide
T1 peptide: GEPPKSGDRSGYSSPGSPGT
Description: The peptides were diluted in 3% BSA/TBST in 0.5 log dilutions starting at 1 μg/mL and bound to neutravidin coated plates. Plates were washed 5× with TBST between all steps. 17G2.A1 was diluted to 5 μg/mL in 3% BSA/TBST and incubated for 1 hour at room temperature, followed by incubation with anti-mouse IgG-HRP (Novex) diluted 1/5000 in BSA/TBST for 45 minutes at room temperature. ELISAs were developed with 50 μL of 1-step TMB Ultra.

[2] = target: T2, full-length human Tau (Tau441; 2N4R), recombinant (human, UniProt P10636 1-758); assay: SPR Biacore, antibody captured, r-Tau injected
T2 construct: made in E. coli, His6-Smt3 tag removed; biotinylated through amines for Octet and phage work; also called r-Tau; recombinant Tau
Description: The affinity of each hybridoma antibody for r-Tau was determined by surface plasmon resonance using a Biacore™ T200 instrument. Biacore™ Series S CM5 sensor chips were immobilized with polyclonal rabbit anti-mouse IgG (Fc) antibody (mouse antibody capture kit from GE Healthcare). 1 μg/mL of antibody was captured for 1 minute on each flow cell and serial 3-fold dilutions of r-Tau were injected at a flow rate of […]. Each sample was analyzed with a 3-minute association and a 10-minute dissociation. After each injection, the chip was regenerated using 10 mM Glycine-HCl (pH 1.7). Binding response was corrected by subtracting the RU from a flow cell capturing an irrelevant IgG at similar density. A 1:1 Languir model of simultaneous fitting of kₒₙ and koff was used for kinetics analysis.

cynomolgus monkey Tau = target: T3, cynomolgus monkey Tau (cynomolgus monkey, UniProt P57786 2-459 (rhesus entry)); assay: ELISA, hybridoma antibody
T3 construct: also called cyno Tau; cyno-Tau
Description: Primary screening was performed by coating 96-well ELISA Nunc plates overnight at 4° C. with 1 μg/mL r-Tau in PBS. The plates were washed three times with PBST using a Biotek plate washer. 50 µL/well of hybridoma supernatants were added to the plates with incubation at room temperature for 1 hour. Plates were washed three times with PBST. A secondary detection antibody goat X m HRP (Southern Biotech) at 1:2000 dilution, 50 μL/well was added to the plate and incubated for 1 hour at room temperature. At the end of an hour, plates were washed three time with PBST. Plates were developed with 50 μL/well of TMB substrate (Thermo Fisher) and quenched with 50 μL/well of 1N sulfuric acid. The signal was quantified on a BioTek® plate reader at A450. Wells with an OD three times the background for r-Tau were considered positive and carried forward for secondary screening.
Positives from primary screening were carried forward into the secondary screening where they were screened by ELISA using the above protocol on r-Tau, p-Tau, and cyno-Tau for binding and cross-reactivity. Further characterization on the five different Tau isoforms was performed by the same method.

[3] = target: T4, Tau 346-360 peptide, unphosphorylated (human, SMILES …); assay: ELISA on biotinylated peptide
T4 peptide: Biotin-FKDRVQSKIGSLDNI-NH2
Description: (§1) Peptides corresponding to original binding sites on the microarray were synthesized and included all permutations of phospho-serine epitopes. Peptides were synthesized with a biotinylated N-terminus and C-terminal amide. Peptides were purified and confirmed by mass spectrometry. Peptides were then bound to streptavidin-coated plates in half serial dilutions from 250 ng/well of each peptide. Antibody binding was tested at 1 μg/mL in 5% BSA TBST, followed by washing and detection with goat anti-human HRP (as described above in the “Chimeric IgG ELISA” section).

[4] = target: T5, Tau 251-270 peptide, unphosphorylated (human, N-terminal biotin; C-terminal amide); assay: ELISA on biotinylated peptide
T5 peptide: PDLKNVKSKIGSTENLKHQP
Description: as §1

[5] = target: T2, full-length human Tau (Tau441; 2N4R), …; assay: Octet binning on biotin-r-Tau; competitor 1C7
Description: (§2) Epitope binning assays were performed using a FortéBio® Octet® RED384 instrument using FortéBio® Streptavidin biosensors. Biotinylated recombinant Tau was diluted to a concentration of 2 μg/mL in kinetic buffer (obtained from FortéBio®) and captured onto individual biosensors for 1 minute. A baseline was then established for 1 minute in kinetic buffer. The loaded biosensors were dipped into 10 μg/mL of the first chimeric IgG antibody until signal saturation, followed by dipping into 1 μg/mL of a second antibody. The binding for the second antibody was normalized to its total binding in the absence of the first antibody.

[6] = target: T2, full-length human Tau (Tau441; 2N4R), …; assay: Octet binning on biotin-r-Tau; competitor 1G7
Description: as §2

[7] = target: T2, full-length human Tau (Tau441; 2N4R), …; assay: Octet binning on biotin-r-Tau; row antibody Ab107 (anti-BACE1 control)
Description: as §2

[8] = target: T6, Tau 346-360 peptide phosphorylated at Ser352 (human, SMILES …); assay: ELISA on biotinylated peptide
T6 construct: also called pSer352
T6 peptide: Biotin-FKDRVQ[pS]KIGSLDNI-NH2
Description: as §1

[9] = target: T7, Tau 251-270 peptide phosphorylated at both Ser258 and Ser262 (human, N-terminal biotin; C-terminal amide; phosphoserine at 258 and 262 (numbering of SEQ ID NO:1)); assay: ELISA on biotinylated peptide
T7 construct: also called pSer258 and pSer262 peptide
T7 peptide: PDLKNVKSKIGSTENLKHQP
Description: as §1

[10] = target: T8, Tau 346-360 peptide phosphorylated at Ser356 (human, SMILES …); assay: ELISA on biotinylated peptide
T8 construct: also called pSer356
T8 peptide: Biotin-FKDRVQSKIG[pS]LDNI-NH2
Description: as §1

T2 sequence (P10636 other isoform, or with tags, fused parts or gaps limits assumed): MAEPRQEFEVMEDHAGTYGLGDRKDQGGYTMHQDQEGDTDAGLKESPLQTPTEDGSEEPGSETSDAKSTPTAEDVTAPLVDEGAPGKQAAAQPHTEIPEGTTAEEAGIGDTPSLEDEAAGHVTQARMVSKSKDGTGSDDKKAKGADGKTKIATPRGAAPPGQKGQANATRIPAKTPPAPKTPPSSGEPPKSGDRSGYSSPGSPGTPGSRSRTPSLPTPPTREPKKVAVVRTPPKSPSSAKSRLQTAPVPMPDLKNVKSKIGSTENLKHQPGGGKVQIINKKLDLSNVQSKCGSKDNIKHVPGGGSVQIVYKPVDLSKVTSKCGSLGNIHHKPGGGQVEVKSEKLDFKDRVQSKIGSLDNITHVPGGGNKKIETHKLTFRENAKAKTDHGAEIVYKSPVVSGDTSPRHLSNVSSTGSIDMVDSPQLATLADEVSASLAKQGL
T3 sequence (P57786 other isoform, or with tags, fused parts or gaps limits assumed): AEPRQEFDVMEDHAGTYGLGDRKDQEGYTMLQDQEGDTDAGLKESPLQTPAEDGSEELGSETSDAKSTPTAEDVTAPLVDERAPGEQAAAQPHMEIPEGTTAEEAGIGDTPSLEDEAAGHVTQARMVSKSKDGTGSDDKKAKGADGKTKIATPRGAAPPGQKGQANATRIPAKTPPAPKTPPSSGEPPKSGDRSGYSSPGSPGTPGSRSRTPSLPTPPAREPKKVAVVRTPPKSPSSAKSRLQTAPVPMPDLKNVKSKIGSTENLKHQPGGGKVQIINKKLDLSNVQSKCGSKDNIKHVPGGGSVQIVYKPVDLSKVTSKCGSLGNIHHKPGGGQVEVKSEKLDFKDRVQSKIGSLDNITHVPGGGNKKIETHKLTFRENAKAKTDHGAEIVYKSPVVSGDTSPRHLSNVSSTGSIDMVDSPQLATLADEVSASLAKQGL

B1: murine anti-Tau hybridoma antibody 17G2.A1 (antibody, V domains shown)
VH: QVQLQQPGAELVGPGSSVKLSCKASGYTFINYWIDWMKQSPGQGLEWIGNIYPSDSESHYNQKFTDKATLTVDISSSTAYLQLSSLTSEDSAVYYCALYSKGYWGQGTSVTVSS
VL: DVLMTQTPLSLPVTLGDQASISCRSSQNIVHTNGNTYLEWYLQKPGQSPKLLIYKLSSRFSGVPDRFSGSGSGTDFTLKISRVEAEDLGVYYCFQGSHLPFTFGGGTKLEIKR
notes: mouse IgG from hybridoma; also called anti-Tau 17G2.A1
binding result [1]: binds
Kd [2]: 2.48 nM
koff [2]: 0.000383 s⁻¹
kon [2]: 155000 M⁻¹ s⁻¹
binding result (cynomolgus monkey Tau): binds

B2: chimeric IgG clone 1D10 (antibody, V domains shown)
VH: EVQLQQSGAELVRPGASVKLSCTASGFNIKDSLMHWMKQRPEQGLEWIGWIDPEDGETKYAPKFQDKATLTADTSSNAAYLQLSSLTSEDTAIYYCVRGDWDGGYWGQGTTLTVSS
VL: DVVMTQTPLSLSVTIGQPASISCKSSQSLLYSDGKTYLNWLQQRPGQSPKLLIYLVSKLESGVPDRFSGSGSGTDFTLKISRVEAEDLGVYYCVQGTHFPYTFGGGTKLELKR
notes: mouse-human chimeric IgG from HEK293
binding result [3]: binds
binding result [4]: binds
normalized binding of second antibody [5]: 0.88
normalized binding of second antibody [6]: 0.12
normalized binding of second antibody [7]: 1

B3: chimeric IgG clone 1A1 (antibody, V domains shown)
VH: EVQLQQSGAELVRPGASVRLSCTASGFNIKDSLMHWLKQRPEQGLEWIGWIDPEDGETKYAPKFQDKATITADTSSNTAYLQLSSLTSEDTAIYYCTRRDWEGPWGQGTLVTVSA
VL: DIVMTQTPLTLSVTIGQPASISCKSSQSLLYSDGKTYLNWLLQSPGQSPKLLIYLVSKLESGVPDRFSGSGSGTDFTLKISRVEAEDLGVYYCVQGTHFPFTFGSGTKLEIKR
notes: mouse-human chimeric IgG from HEK293; also called anti-Tau 1A1; anti-Tau^1A1
binding result [3]: binds
binding result [8]: binds
binding result [9]: binds
binding result [4]: binds
binding result [10]: binds

B4: chimeric IgG clone 1G7 (antibody, V domains shown)
VH: B3 VH with L11V, R19K, A24T, E89G, T97A
VL: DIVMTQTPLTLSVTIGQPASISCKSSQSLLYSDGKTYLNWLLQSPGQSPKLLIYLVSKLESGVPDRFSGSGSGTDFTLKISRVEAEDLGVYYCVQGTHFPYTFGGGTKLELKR
notes: as for B2
binding result [3]: binds
binding result [8]: binds
binding result [4]: binds
normalized binding of second antibody [5]: 0.85
normalized binding of second antibody [6]: -0.03
normalized binding of second antibody [7]: 1

B5: chimeric IgG clone 1A5 (antibody, V domains shown)
VH: EVQLQQSGAELVRPGASVKLSCTASGFNIKDSLIHWVKQRPEQGLEWIGWIDPEDGETKYAPKFQDKATKTADTSSNTAYLQLSSLTSEDTAIYYCASGEWDYWGQGTSVTVSS
VL: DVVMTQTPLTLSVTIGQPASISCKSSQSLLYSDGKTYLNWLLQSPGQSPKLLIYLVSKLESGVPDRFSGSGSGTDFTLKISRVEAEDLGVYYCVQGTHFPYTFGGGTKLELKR
notes: as for B2
binding result [3]: binds
binding result [4]: binds
normalized binding of second antibody [5]: 0.7
normalized binding of second antibody [6]: -0.1
normalized binding of second antibody [7]: 1
